Target: T1, Cpn0803 (Chlamydia pneumoniae, UniProt Q9Z7A3 1-184)
T1 construct: Prey in an E. coli lysate
T1 sequence: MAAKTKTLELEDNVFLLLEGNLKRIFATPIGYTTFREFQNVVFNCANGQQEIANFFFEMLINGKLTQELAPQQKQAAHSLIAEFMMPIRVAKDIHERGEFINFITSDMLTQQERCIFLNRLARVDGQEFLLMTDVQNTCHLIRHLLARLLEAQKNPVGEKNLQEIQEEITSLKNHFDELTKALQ
Test: GST pull-down from E. coli lysate, high salt wash

B1: GST-CopB1-255 (other)
chain: MSISSSSGPDNQKNIMSQVLTSTPQGVPQQDKLSGNETKQIQQTRQGKNTEMESDATIAGASGKDKTSSTTKTETAPQQGVAAGKESSESQKAGADTGVSGAAATTASNTATKIAMQTSIEEASKSMESTLESLQSLSAAQMKEVEAVVVAALSGKSSGSAKLETPELPKPGVTPRSEVIEIGLALAKAIQTLGEATKSALSNYASTQAQADQTNKLGLEKQAIKIDKEREEYQEMKAAEQKSKDLEGTMDTVNT
notes: Bait on glutathione-agarose beads; also called recombinant GST-CopB1-255; GST-CopB fragment; not shown: glutathione-S-transferase (GST) fusion tag
binding result: no binding
